Residue numbers refer to the chain shown, from its start.
B1: 1 (protein, listed as Rhizobium sp.)
chain: MAQGKVALEEHFAIPETLQDSAGFVPGDYWKELQHRLLDIQDTRLKLMDAHGIETMILSLNAPAVQAIPDRRKAIEIARRANDVLAEECAKRPDRFLAFAALPLQDPDAATEELQRCVNDLGFVGALVNGFSQEGDGQTPLYYDLPQYRPFWGEVEKLDVPFYLHPRNPLPQDSRIYDGHPWLLGPTWAFAQETAVHALRLMASGLFDEHPRLNIILGHMGEGLPYMMWRIDHRNAWVKLPPRYPAKRRFMDYFNENFHITTSGNFRTQTLIDAILEIGADRILFSTDWPFENIDHASDWFNATSIAEADRVKIGRTNARRLFKLDGA
B2: 121 (protein)
chain: MAIIDCHGHYTTTPKGVEDYRNAQKAAVAKDPSFKGEKGQVVVSDDEIRESIENNQLKMQRERGTDLTIFSPRWDAGGHHIGNEYTSQFWTEHQNDLIRRVCDLFPKNFAPVAQLPQSPGVDPAKSVPEIVRTVEQMGFIGINLNPDPSGGYWKDTSLADRAFYPIYEKMVEYDIPAMIHPRLACNACFHTGLSVGLGADTTGFQQLIMSDVFKDFPSLKIIIPHGGGAVPYHWGRFRGLMQDQGYAPLEESALKNIYFDTCVYHQRGIDLLLDIVPTQNILFASEMIGAVRGIDPETGHNFDDTKRYIDNNTALNAEEKAMIFEGNARRVFSRLKTD
modifications: Dicamba decarboxylase variant clone: DC.12.014
B3: 118 (protein)
chain: MAKKPRIDMHSHFFPRISEQEAAKFDANHAPWLQVSAKGDTGSIMMGKNNFQPVYQALWDPAFRIEEMDAQGVDVQVTCATPVMFGYTWEANKAAQWAERMNDFALEFAAHNPQRIKVLAQVPLQDLDLACKEASRAVAAGHLGIQIGNHLGDKDLDDATLEAFLTHCANEDIPILVHGTDMMGGQRMKKWGLPWLVALAAEVQLAILSLILSGAFERIPKSLKICFSHGGGSFAFLLGLVDEAWRHVDIVREDCPRPPSEYVDRFFVDSVGNPGALELLVSVMGEDRVMLGSDYPHTTGEQKIGGLVLSSNLGESAKDKIISGNASKFFNINV
modifications: Dicamba decarboxylase variant clone: DC.5.033
B4: 119 (protein)
chain: B3 chain with T180W, P194Y, L199H, A200H, L237T, L240W, H297L
modifications: Dicamba decarboxylase variant clone:DC.5.034
B5: 120 (protein)
chain: MAIIDCHGHYTTTPKGVETYRNAQKAAVAKDPSFKYEKGQVVVSDDEIRESIENNQLKMQRERGTDLTIFSPRSTAGGHHIGNEYTSQFWTEHQNDLIRRVCDLFPKNFAPVAQLPQSPGVDPAKSVPEIVRTVEQMGFIGINLNPDPSGGYWKDTSLADRAFYPIYEKMVEYDIPAMIHPRNACNDCFHTTGSHALGADTTGFQQLIMSDVFKDFPSLKIIIPHGGGAVPYHWGRFRGLMQDQGYAPLEESALKNIYFDTCVYHQRGIDLLLDIVPTQNILFASEMIGAVRGIDAETGHNFDDTKRYIDNNTALNAEEKAMIFEGNARRVFSRLKTD
modifications: Dicamba decarboxylase variant clone: DC.12.002
B6: 122 (protein)
chain: B5 chain with T19D, Y36G, E286D, A296P
modifications: Dicamba decarboxylase variant clone: DC.12.103
B7: 100 (protein, listed as Reinekea blandensis)
chain: MAIIDCHGHYTTTPKGVEDYRNAQKAAVAKDPSFKGEKGQVVVSDDEIRESIENNQLKMQRERGTDLTIFSPRASWMGHHIGNEYTSQFWTEHQNDLIRRVCDLFPKNFAPVAQLPQSPGVDPAKSVPEIVRTVEQMGFIGINLNPDPSGGYWKDTSLADRAFYPIYEKMVEYDIPAMIHVSAACNDCFHTTGSHYLGADTTGFQQLIMSDVFKDFPSLKIIIPHGGGAVPYHWGRFRGLMQDQGYAPLEESALKNIYFDTCVYHQRGIDLLLDIVPTQNILFASEMIGAVRGIDPETGHNFDDTKRYIDNNTALNAEEKAMIFEGNARRVFSRLKTD
B8: 116 (protein)
chain: MAQGKVALEEHFAIPETLQDAAGFVPGDYWKELQHRLLDIQDRRVRLMDEHGIETMILSLNAPAVQAIADSTRANETARRANDFLAEQVAKQPTRFRGFAALPMQDPELAARELERCVKELGFVGALVNGFSQDNRSAVPLYYDMAQYWPFWETVQALDVPFYLHPRNPLPSDARIYDGHAWLLGPTWAFGQETAVHALRLMGSGLFDKYPALKIILGHMGEGLPYSMWRIDHRNAWIKTTPKYPAKRKIVDYFNENFYLTTSGNFRTQTLIDAILEIGADRILFSTDWPFENIDHAADWFENTSISEADRKKIGWGNAQNLFKLNR
modifications: Dicamba decarboxylase variant clone: DC.30.007
B9: 117 (protein)
chain: MAKKPRIDMHSHFFPRISEQEAAKFDANHAPWLQVSAKGDTGSIMMGKNNFRPVYQALWDPAFRIEEMDAQGVDVQVTCATPVMFGYTWEANKAAQWAERMNDFALEFAAHNPQRIKVLAQVPLQDLDLACKEASRAVAAGHLGIQIGNHLGDKDLDDATLEAFLTHCANEDIPILVHPWDMMGGQRMKKWMLPVLVAAPAEVQLAILSLILSGAFERIPKSLKICFAGGGGSFAFLLGIVDLAWRHRDIVREDCPRPPSEYVDRFFVDSLVFNPGALELLVSVMGEDRVMLGSDYPFPTGEQKIGGLVLSSNLGESAKDKIISGNASKFFNINV
modifications: Dicamba decarboxylase variant clone: DC.5.008
B10: 261 (protein)
chain: B1 chain with N61A, R72V, K73E, V84F, W229Y, N235I, K239H, L240E, S298A
modifications: Dicamba decarboxylase variant

Assay: 14C assay with IPTG-induced recombinant E. coli cells: 14CO2 captured from [14C]-carboxyl-labeled dicamba
Conditions: among the 108 sequences tested, recombinant E. coli cells

Molecule | decarboxylation activity of dicamba
B1 | showed decarboxylation activity of dicamba

Same assay, conditions: dicamba decarboxylation activity of the protein of the given SEQ ID NO; High / Low / No

Molecule | Enzymatic Detection level
B1 | High
B2 | High
B3 | High
B4 | High
B5 | High
B6 | High
B7 | No
B8 | High
B9 | High

Same assay, conditions: induced recombinant E. coli cells, [14C]-carboxyl-labeled dicamba, 14CO2 capture

Molecule | Dicamba Decarboxylase Activity
B1 | High
B7 | No

Assay: Shuffled variant libraries: 14CO2 capturing assay in 384-well format
Conditions: decarboxylation activity (carbon dioxide released) compared with unmutated backbone protein SEQ ID NO 133 (DDEC0201)

Molecule | Fold Activity
B10 | 1.2

Assay: Dicamba decarboxylation activity of computationally designed protein variants and their parents
Conditions: parent = 100

Molecule | Percent Activity Improvement Over Parent
B1 | 100%
B8 | 220%

Same assay, conditions: statement in the description

Molecule | dicamba decarboxylase activity (native protein or designed variant)
B2 | have dicamba decarboxylase activity
B3 | have dicamba decarboxylase activity
B4 | have dicamba decarboxylase activity
B5 | have dicamba decarboxylase activity
B6 | have dicamba decarboxylase activity
B7 | Neither of the native proteins have dicamba decarboxylase activity
B8 | displays an increase in dicamba decarboxylase activity
B9 | have dicamba decarboxylase activity

Assay: Saturation mutagenesis of SEQ ID NO:109: dicamba decarboxylation activity of point mutants (carbon dioxide released)
Conditions: decarboxylation activity (carbon dioxide released) of point mutant compared with unmutated backbone protein; backbone SEQ ID NO: 109

Molecule | Fold Activity
B1 | 1.2
B10 | 2.3
B2 | 1
B3 | 1.4
B4 | 1.6
B5 | 1.3
B6 | 0.9
B7 | 2.5
B8 | 1.5
B9 | 1.8

Assay: Product analysis of reactions of purified His-tag protein with dicamba (14C assay, GC/MS, LC-MS/MS)
Type: biochemical
Conditions: compared to estimated CO2 formation (100%)
Procedure: Alternatively, dicamba decarboxylase activity can be monitored by measuring decarboxylation products other than CO2 using product detection methods. The decarboxylation product of dicamba, 2,5-dichloro anisole or 2,5-DCA (FIG. 1C), is a volatile compound with a flash point of 21° C. To capture this volatile compound for detection, 140 ul of toluene solution is added on top of 1 ml reaction mixture to form a trapping layer in a 1.5 ml eppendorf tube. […] The reaction is kept still at room temperature overnight before being vortex mixed and centrifuged at 14,000 rpm for 15 minutes. The top toluene phase is carefully removed using a micropipette and transferred into a 12×32 mm polypropylene vial (Vial 11 mm) from MicroLiter Analytical Supplies, Inc. (catalog number 11-5300-100). The vial is sealed with Crimp seal (11 mm with FEP/Nat Rubber) from MicroLiter Analytical Supplies, Inc. (catalog number 11-0020A) using a E-Z Crimper™ 11 mm from Wheaton Inc. 1 ul of the toluene mixture is taken from the sealed vials and injected in splitless mode into a GC/MS system for sample analysis (Agilent GC/MS system with a 6890A GC, a 5973N MSD and a CTC CombiPAL auto-sampler or with a 7890A GC, a 5975C MSD and an Agilent GC Sampler 80 auto-sampler).

Molecule | relative amount of 2,5-DCA | relative amount of 2,5-DCP | relative amount of 4-chloro-3-methoxy phenol
B1 | < 1% | > 80% | < 10%

Same assay, conditions: purified protein incubated with dicamba

Molecule | enzymatic reaction products detected
B1 | four enzymatic reaction products
B2 | 2,5-DCA was detected
B3 | 2,5-DCA was detected
B4 | 2,5-DCA was detected
B5 | 2,5-DCA was detected
B6 | 2,5-DCA was detected
B9 | 2,5-DCA was detected
